T1: FcγRIIa H (human, UniProt P12318 34-217)
T1 construct: extracellular domain; also called FcgRIIa H type; 2aH; not shown: His tag at the C terminus
T1 sequence (looked up): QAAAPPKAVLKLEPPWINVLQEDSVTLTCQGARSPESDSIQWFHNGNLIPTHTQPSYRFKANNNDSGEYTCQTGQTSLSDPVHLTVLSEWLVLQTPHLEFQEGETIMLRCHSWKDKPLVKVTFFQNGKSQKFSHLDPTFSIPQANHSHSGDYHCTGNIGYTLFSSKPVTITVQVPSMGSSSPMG

B1: GpH7-A5/GpH7-B3 variant I332_13S/GpL16-k0 (antibody, human IgG1, kappa)
heavy 1: not shown
heavy 2: not shown
light: DIVMTQSPLSLPVTPGEPASISCQASESLVHSNRNTYLHWYLQKPGQSPQLLIYKVSNRFSGVPDRFSGSGSGTDFTLKISRVEAEDVGVYYCSQNTHVPPTFGQGTKVEIERTVAAPSVFIFPPSDEQLKSGTASVVCLLNNFYPREAKVQWKVDNALQSGNSQESVTEQDSKDSTYSLSSTLTLSKADYEKHKVYACEVTHQGLSSPVTKSFNRGEC
notes: also called He Ab I332_13S
B2: GpH7-A5/GpH7-B3 variant H268_18N/GpL16-k0 (antibody, human IgG1, kappa)
heavy 1: not shown
heavy 2: not shown
light: B1 light
notes: also called He Ab H268_18N
B3: GpH7-B3 variant T335_15Y/GpL16-k0 (antibody, human IgG1, kappa)
heavy: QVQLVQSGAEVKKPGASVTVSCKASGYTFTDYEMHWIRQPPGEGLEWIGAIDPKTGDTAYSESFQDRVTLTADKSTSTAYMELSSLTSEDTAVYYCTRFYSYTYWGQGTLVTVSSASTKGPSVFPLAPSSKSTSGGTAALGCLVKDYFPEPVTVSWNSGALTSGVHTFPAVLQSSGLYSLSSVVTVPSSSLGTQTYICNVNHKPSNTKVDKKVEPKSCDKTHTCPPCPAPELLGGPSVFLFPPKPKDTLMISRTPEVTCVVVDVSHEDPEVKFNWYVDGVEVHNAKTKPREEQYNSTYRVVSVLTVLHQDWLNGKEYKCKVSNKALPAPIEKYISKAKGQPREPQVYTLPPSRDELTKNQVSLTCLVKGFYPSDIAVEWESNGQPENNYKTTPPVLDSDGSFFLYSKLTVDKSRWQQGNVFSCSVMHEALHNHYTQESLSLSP
light: B1 light
notes: also called Ho Ab T335_15Y
B4: GpH7-B3 variant Q295_07I/GpL16-k0 (antibody, human IgG1, kappa)
heavy: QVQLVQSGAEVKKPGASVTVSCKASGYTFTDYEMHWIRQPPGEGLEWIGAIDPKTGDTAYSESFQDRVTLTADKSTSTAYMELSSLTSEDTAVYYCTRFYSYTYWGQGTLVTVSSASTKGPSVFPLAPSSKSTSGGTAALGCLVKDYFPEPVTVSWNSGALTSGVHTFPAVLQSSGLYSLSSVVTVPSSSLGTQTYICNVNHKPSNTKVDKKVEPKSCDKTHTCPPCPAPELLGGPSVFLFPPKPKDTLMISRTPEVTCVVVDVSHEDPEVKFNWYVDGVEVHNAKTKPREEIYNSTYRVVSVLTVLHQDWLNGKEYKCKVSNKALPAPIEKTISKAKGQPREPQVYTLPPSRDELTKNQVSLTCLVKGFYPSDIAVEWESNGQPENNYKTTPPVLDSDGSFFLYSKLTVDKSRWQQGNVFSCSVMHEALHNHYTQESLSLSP
light: B1 light
notes: also called Ho Ab Q295_07I
B5: GpH7-A5/GpH7-B3 variant G236_03V/GpL16-k0 (antibody, human IgG1, kappa)
heavy 1: not shown
heavy 2: not shown
light: B1 light
notes: also called He Ab G236_03V
B6: GpH7-A5/GpH7-B3 variant K334_07I/GpL16-k0 (antibody, human IgG1, kappa)
heavy 1: not shown
heavy 2: not shown
light: B1 light
notes: also called He Ab K334_07I
B7: GpH7-A5/GpH7-B3 variant I332_03V/GpL16-k0 (antibody, human IgG1, kappa)
heavy 1: not shown
heavy 2: not shown
light: B1 light
notes: also called He Ab I332_03V
B8: GpH7-A5/GpH7-B3 variant K334_04F/GpL16-k0 (antibody, human IgG1, kappa)
heavy 1: not shown
heavy 2: not shown
light: B1 light
notes: also called He Ab K334_04F
B9: GpH7-B3 variant S337_10E/GpL16-k0 (antibody, human IgG1, kappa)
heavy: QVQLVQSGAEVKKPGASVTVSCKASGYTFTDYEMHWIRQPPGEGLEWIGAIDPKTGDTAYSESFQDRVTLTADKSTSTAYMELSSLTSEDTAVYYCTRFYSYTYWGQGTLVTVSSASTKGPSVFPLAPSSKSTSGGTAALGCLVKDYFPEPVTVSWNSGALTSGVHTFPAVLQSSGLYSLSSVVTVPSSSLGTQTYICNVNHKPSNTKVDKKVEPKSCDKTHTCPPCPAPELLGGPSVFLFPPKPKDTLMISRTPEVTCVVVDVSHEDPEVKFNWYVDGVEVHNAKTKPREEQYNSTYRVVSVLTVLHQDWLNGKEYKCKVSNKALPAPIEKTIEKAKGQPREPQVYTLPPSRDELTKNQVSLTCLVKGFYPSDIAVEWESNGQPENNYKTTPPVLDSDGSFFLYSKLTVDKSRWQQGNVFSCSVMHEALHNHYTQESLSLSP
light: B1 light
notes: also called Ho Ab S337_10E
B10: GpH7-A5/GpH7-B3 variant I336_06M/GpL16-k0 (antibody, human IgG1, kappa)
heavy 1: not shown
heavy 2: not shown
light: B1 light
notes: also called He Ab I336_06M
B11: GpH7-A5/GpH7-B3 variant I336_08L/GpL16-k0 (antibody, human IgG1, kappa)
heavy 1: not shown
heavy 2: not shown
light: B1 light
notes: also called He Ab I336_08L
B12: GpH7-A5/GpH7-B3 variant H268_09D/GpL16-k0 (antibody, human IgG1, kappa)
heavy 1: not shown
heavy 2: not shown
light: B1 light
notes: also called He Ab H268_09D
B13: GpH7-A5/GpH7-B3 variant K334_03V/GpL16-k0 (antibody, human IgG1, kappa)
heavy 1: not shown
heavy 2: not shown
light: B1 light
notes: also called He Ab K334_03V
B14: GpH7-A5/GpH7-B3 variant I332_10E/GpL16-k0 (antibody, human IgG1, kappa)
heavy 1: not shown
heavy 2: not shown
light: B1 light
notes: also called He Ab I332_10E
B15: GpH7-A5/GpH7-B3 variant K326_09D/GpL16-k0 (antibody, human IgG1, kappa)
heavy 1: not shown
heavy 2: not shown
light: B1 light
notes: also called He Ab K326_09D
B16: GpH7-A5/GpH7-B3 variant H268_13S/GpL16-k0 (antibody, human IgG1, kappa)
heavy 1: not shown
heavy 2: not shown
light: B1 light
notes: also called He Ab H268_13S
B17: GpH7-A5/GpH7-B3 variant K326_10E/GpL16-k0 (antibody, human IgG1, kappa)
heavy 1: not shown
heavy 2: not shown
light: B1 light
notes: also called He Ab K326_10E
B18: GpH7-B3 variant P271_01G/GpL16-k0 (antibody, human IgG1, kappa)
heavy: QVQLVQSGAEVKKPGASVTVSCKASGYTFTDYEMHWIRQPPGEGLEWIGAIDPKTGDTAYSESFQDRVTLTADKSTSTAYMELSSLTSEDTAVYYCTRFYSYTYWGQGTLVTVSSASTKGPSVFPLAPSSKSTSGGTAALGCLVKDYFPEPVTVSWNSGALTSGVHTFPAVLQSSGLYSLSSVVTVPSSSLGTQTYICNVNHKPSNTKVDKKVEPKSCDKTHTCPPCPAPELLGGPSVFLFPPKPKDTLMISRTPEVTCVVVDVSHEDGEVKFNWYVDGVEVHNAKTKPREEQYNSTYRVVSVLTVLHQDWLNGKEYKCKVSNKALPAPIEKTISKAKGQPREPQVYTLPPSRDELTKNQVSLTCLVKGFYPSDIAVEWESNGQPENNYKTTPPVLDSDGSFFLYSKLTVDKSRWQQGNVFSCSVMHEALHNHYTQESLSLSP
light: B1 light
notes: also called Ho Ab P271_01G
B19: GpH7-B3 variant S239_09D/GpL16-k0 (antibody, human IgG1, kappa)
heavy: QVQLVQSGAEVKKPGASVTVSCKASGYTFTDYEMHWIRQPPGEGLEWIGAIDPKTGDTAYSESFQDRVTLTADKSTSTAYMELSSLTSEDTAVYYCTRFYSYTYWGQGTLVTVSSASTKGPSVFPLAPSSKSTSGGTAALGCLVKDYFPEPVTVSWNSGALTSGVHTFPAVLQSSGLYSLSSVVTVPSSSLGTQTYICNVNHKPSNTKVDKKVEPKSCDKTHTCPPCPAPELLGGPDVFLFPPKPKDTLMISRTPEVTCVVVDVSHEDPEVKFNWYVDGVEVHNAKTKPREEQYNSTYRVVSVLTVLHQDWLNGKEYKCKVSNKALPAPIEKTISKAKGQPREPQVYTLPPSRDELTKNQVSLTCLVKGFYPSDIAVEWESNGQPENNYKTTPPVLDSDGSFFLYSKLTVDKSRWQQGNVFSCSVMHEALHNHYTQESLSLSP
light: B1 light
notes: also called Ho Ab S239_09D
B20: GpH7-B3 variant Q295_05P/GpL16-k0 (antibody, human IgG1, kappa)
heavy: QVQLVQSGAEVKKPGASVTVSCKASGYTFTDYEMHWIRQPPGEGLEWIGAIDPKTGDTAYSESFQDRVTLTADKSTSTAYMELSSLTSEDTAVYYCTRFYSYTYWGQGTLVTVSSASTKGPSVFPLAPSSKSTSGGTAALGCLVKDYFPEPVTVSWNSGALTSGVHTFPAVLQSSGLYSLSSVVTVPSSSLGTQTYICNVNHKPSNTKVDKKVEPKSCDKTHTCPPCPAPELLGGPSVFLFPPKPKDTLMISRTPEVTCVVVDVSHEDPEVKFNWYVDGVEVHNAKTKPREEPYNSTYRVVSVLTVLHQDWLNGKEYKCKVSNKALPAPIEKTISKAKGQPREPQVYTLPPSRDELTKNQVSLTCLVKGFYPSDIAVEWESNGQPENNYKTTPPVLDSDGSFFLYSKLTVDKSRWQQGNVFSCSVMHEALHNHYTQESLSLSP
light: B1 light
notes: also called Ho Ab Q295_05P
B21: GpH7-A5/GpH7-B3 variant K334_14T/GpL16-k0 (antibody, human IgG1, kappa)
heavy 1: not shown
heavy 2: not shown
light: B1 light
notes: also called He Ab K334_14T
B22: GpH7-A5/GpH7-B3 variant K326_06M/GpL16-k0 (antibody, human IgG1, kappa)
heavy 1: not shown
heavy 2: not shown
light: B1 light
notes: also called He Ab K326_06M
B23: GpH7-A5/GpH7-B3 variant K326_14T/GpL16-k0 (antibody, human IgG1, kappa)
heavy 1: not shown
heavy 2: not shown
light: B1 light
notes: also called He Ab K326_14T
B24: GpH7-A5/GpH7-B3 variant I332_19Q/GpL16-k0 (antibody, human IgG1, kappa)
heavy 1: not shown
heavy 2: not shown
light: B1 light
notes: also called He Ab I332_19Q
B25: GpH7-A5/GpH7-B3 variant I332_14T/GpL16-k0 (antibody, human IgG1, kappa)
heavy 1: not shown
heavy 2: not shown
light: B1 light
notes: also called He Ab I332_14T
B26: GpH7-B3 variant T335_16H/GpL16-k0 (antibody, human IgG1, kappa)
heavy: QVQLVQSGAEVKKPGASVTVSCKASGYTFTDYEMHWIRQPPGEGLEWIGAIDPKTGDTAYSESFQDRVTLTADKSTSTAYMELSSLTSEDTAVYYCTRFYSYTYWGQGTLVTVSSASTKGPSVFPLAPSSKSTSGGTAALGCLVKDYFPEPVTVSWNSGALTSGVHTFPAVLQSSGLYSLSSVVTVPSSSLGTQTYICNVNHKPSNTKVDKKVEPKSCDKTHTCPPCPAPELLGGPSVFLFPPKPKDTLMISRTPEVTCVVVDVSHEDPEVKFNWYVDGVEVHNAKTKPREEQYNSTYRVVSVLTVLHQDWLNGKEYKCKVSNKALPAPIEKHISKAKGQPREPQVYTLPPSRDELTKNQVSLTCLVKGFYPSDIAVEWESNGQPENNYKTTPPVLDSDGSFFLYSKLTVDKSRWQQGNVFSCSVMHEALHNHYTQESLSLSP
light: B1 light
notes: also called Ho Ab T335_16H
B27: GpH7-B3 variant T335_13S/GpL16-k0 (antibody, human IgG1, kappa)
heavy: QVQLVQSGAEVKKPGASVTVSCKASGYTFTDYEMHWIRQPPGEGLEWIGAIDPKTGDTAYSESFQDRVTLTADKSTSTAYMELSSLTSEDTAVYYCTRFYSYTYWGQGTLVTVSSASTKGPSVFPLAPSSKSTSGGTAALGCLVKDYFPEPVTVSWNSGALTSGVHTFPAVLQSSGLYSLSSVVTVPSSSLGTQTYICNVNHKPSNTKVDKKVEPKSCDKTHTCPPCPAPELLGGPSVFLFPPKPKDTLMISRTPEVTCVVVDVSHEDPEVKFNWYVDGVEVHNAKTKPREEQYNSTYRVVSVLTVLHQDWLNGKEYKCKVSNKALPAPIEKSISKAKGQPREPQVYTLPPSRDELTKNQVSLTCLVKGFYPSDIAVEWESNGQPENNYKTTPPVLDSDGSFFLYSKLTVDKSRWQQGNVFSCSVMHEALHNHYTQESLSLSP
light: B1 light
notes: also called Ho Ab T335_13S
B28: GpH7-B3 variant S267_02A/GpL16-k0 (antibody, human IgG1, kappa)
heavy: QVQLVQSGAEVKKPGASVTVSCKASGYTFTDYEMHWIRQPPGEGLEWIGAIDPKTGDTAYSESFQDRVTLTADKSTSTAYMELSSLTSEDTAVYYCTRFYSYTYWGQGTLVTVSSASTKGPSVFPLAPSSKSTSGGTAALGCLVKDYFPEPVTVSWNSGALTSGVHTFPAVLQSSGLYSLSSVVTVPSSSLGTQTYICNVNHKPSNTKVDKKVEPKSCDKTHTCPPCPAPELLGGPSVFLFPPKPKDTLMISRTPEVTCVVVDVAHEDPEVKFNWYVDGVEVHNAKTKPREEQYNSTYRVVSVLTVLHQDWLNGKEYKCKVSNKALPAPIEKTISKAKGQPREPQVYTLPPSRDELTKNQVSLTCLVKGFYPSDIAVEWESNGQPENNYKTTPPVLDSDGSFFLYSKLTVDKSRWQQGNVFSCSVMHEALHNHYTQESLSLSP
light: B1 light
notes: also called Ho Ab S267_02A
B29: GpH7-A5/GpH7-B3 variant K334_08L/GpL16-k0 (antibody, human IgG1, kappa)
heavy 1: not shown
heavy 2: not shown
light: B1 light
notes: also called He Ab K334_08L
B30: GpH7-B3 variant S324_10E/GpL16-k0 (antibody, human IgG1, kappa)
heavy: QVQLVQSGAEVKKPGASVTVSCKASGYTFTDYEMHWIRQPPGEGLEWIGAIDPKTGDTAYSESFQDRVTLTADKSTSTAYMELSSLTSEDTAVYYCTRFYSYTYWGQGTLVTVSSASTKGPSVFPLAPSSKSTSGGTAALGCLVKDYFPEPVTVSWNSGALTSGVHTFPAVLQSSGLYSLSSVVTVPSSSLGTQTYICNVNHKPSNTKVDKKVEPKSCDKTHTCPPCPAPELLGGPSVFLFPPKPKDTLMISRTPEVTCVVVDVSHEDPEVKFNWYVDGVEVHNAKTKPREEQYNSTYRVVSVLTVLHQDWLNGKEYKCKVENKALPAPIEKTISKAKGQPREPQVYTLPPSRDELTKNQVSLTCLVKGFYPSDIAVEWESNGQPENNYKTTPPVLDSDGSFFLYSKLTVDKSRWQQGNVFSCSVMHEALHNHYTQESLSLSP
light: B1 light
notes: also called Ho Ab S324_10E

Each binder was assayed against T1, FcγRIIa H (assay: SPR Biacore, relative binding).

He/Con_2aH | Ho/Con_2aH | Binder
110 % of GpH7-A5/GpH7-B3/GpL16-k0 (=100) |  | B1
112 % of GpH7-A5/GpH7-B3/GpL16-k0 (=100) |  | B2
 | 102 % of GpH7-B3/GpL16-k0 (=100) | B3
 | 108 % of GpH7-B3/GpL16-k0 (=100) | B4
119 % of GpH7-A5/GpH7-B3/GpL16-k0 (=100) |  | B5
110 % of GpH7-A5/GpH7-B3/GpL16-k0 (=100) |  | B6
105 % of GpH7-A5/GpH7-B3/GpL16-k0 (=100) |  | B7
106 % of GpH7-A5/GpH7-B3/GpL16-k0 (=100) |  | B8
 | 101 % of GpH7-B3/GpL16-k0 (=100) | B9
106 % of GpH7-A5/GpH7-B3/GpL16-k0 (=100) |  | B10
106 % of GpH7-A5/GpH7-B3/GpL16-k0 (=100) |  | B11
133 % of GpH7-A5/GpH7-B3/GpL16-k0 (=100) |  | B12
109 % of GpH7-A5/GpH7-B3/GpL16-k0 (=100) |  | B13
108 % of GpH7-A5/GpH7-B3/GpL16-k0 (=100) |  | B14
110 % of GpH7-A5/GpH7-B3/GpL16-k0 (=100) |  | B15
112 % of GpH7-A5/GpH7-B3/GpL16-k0 (=100) |  | B16
102 % of GpH7-A5/GpH7-B3/GpL16-k0 (=100) |  | B17
 | 110 % of GpH7-B3/GpL16-k0 (=100) | B18
 | 112 % of GpH7-B3/GpL16-k0 (=100) | B19
 | 106 % of GpH7-B3/GpL16-k0 (=100) | B20
103 % of GpH7-A5/GpH7-B3/GpL16-k0 (=100) |  | B21
103 % of GpH7-A5/GpH7-B3/GpL16-k0 (=100) |  | B22
114 % of GpH7-A5/GpH7-B3/GpL16-k0 (=100) |  | B23
108 % of GpH7-A5/GpH7-B3/GpL16-k0 (=100) |  | B24
115 % of GpH7-A5/GpH7-B3/GpL16-k0 (=100) |  | B25
 | 100 % of GpH7-B3/GpL16-k0 (=100) | B26
 | 101 % of GpH7-B3/GpL16-k0 (=100) | B27
 | 120 % of GpH7-B3/GpL16-k0 (=100) | B28
104 % of GpH7-A5/GpH7-B3/GpL16-k0 (=100) |  | B29
 | 104 % of GpH7-B3/GpL16-k0 (=100) | B30
